Measured values: the Immune Epitope Database (IEDB)

Experiments:
HLA-A*69:01 [1] = assay: IEDB peptide-MHC binding, purified MHC/competitive/fluorescence; filed as Kd, often an IC50 or EC50 that approximates it; ≥ and ≤ were set here for values at or beyond the usual limits of such assays
HLA-B*15:09 = assay: as above
HLA-B*51:01 = assay: IEDB peptide-MHC binding, purified MHC/direct/fluorescence; filed as Kd, often an IC50 or EC50 that approximates it; ≥ and ≤ were set here for values at or beyond the usual limits of such assays; conditions: source organism: Bacillus anthracis
HLA-B*48:01 = assay: as above
HLA-A*02:01 [2] = assay: as above; conditions: source organism: Bacillus anthracis
HLA-A*31:01 [3] = assay: as above
HLA-A*11:01 [4] = assay: as above
HLA-B*07:02 [5] = assay: as above
HLA-B*58:01 [6] = assay: as above
HLA-B*27:05 [7] = assay: as above
HLA-B*38:01 = assay: as above; conditions: source organism: Bacillus cereus 03BB108
HLA-A*01:01 [8] = assay: as above
HLA-A*30:01 [9] = assay: as above; conditions: source organism: Bacillus cereus 03BB108
HLA-A*03:01 [10] = assay: as above; conditions: source organism: Bacillus anthracis
HLA-B*18:01 [11] = assay: as above
HLA-B*40:01 [12] = assay: as above
HLA-B*15:17 [13] = assay: as above; conditions: source organism: Bacillus anthracis
HLA-B*46:01 [14] = assay: as above; conditions: source organism: Bacillus anthracis
HLA-B*57:01 = assay: as above
HLA-B*15:01 [15] = assay: as above; conditions: source organism: Bacillus anthracis
HLA-A*68:02 = assay: IEDB peptide-MHC binding, purified MHC/competitive/fluorescence; filed as Kd, often an IC50 or EC50 that approximates it; ≥ and ≤ were set here for values at or beyond the usual limits of such assays; conditions: source organism: Vaccinia virus Copenhagen
HLA-B*39:01 = assay: as above; conditions: source organism: Vaccinia virus Copenhagen
HLA-A*30:01 [16] = assay: as above
HLA-B*15:17 [17] = assay: as above; conditions: source organism: Vaccinia virus Copenhagen
HLA-A*26:03 = assay: IEDB peptide-MHC binding, purified MHC/direct/fluorescence; filed as Kd, often an IC50 or EC50 that approximates it; ≥ and ≤ were set here for values at or beyond the usual limits of such assays; conditions: source organism: Variola virus
HLA-A*69:01 [18] = assay: as above; conditions: source organism: Camelpox virus M-96
HLA-B*44:02 = assay: as above; conditions: source organism: Camelpox virus M-96
HLA-A*02:19 = assay: IEDB peptide-MHC binding, purified MHC/competitive/fluorescence; filed as Kd, often an IC50 or EC50 that approximates it; ≥ and ≤ were set here for values at or beyond the usual limits of such assays; conditions: source organism: Pseudomonas aeruginosa UCBPP-PA14
HLA-A*02:01 [19] = assay: as above; conditions: source organism: Pseudomonas aeruginosa UCBPP-PA14
HLA-A*02:12 = assay: as above; conditions: source organism: Pseudomonas aeruginosa UCBPP-PA14
HLA-A*26:01 = assay: as above; conditions: source organism: Pseudomonas aeruginosa UCBPP-PA14
HLA-A*31:01 [20] = assay: as above; conditions: source organism: Pseudomonas aeruginosa UCBPP-PA14
HLA-A*11:01 [21] = assay: as above; conditions: source organism: Pseudomonas aeruginosa UCBPP-PA14
HLA-A*02:11 = assay: as above; conditions: source organism: Pseudomonas aeruginosa UCBPP-PA14
HLA-B*07:02 [22] = assay: as above; conditions: source organism: Pseudomonas aeruginosa UCBPP-PA14
HLA-B*58:01 [23] = assay: as above; conditions: source organism: Pseudomonas aeruginosa UCBPP-PA14
HLA-B*27:05 [24] = assay: as above; conditions: source organism: Pseudomonas aeruginosa UCBPP-PA14
HLA-A*01:01 [25] = assay: as above; conditions: source organism: Pseudomonas aeruginosa UCBPP-PA14
HLA-A*02:06 = assay: as above; conditions: source organism: Pseudomonas aeruginosa UCBPP-PA14
HLA-A*24:02 = assay: as above; conditions: source organism: Pseudomonas aeruginosa UCBPP-PA14
HLA-A*03:01 [26] = assay: as above; conditions: source organism: Pseudomonas aeruginosa UCBPP-PA14
HLA-B*18:01 [27] = assay: as above; conditions: source organism: Pseudomonas aeruginosa UCBPP-PA14
HLA-B*40:01 [28] = assay: as above; conditions: source organism: Pseudomonas aeruginosa UCBPP-PA14
HLA-A*02:50 = assay: as above; conditions: source organism: Pseudomonas aeruginosa UCBPP-PA14
HLA-B*35:01 = assay: as above; conditions: source organism: Pseudomonas aeruginosa UCBPP-PA14
HLA-B*46:01 [29] = assay: as above; conditions: source organism: Pseudomonas aeruginosa UCBPP-PA14
HLA-A*02:16 = assay: as above; conditions: source organism: Pseudomonas aeruginosa UCBPP-PA14
HLA-B*15:01 [30] = assay: as above; conditions: source organism: Pseudomonas aeruginosa UCBPP-PA14
[31] = source organism: Bacillus anthracis str. A0488
[32] = source organism: Bacillus anthracis
[33] = source organism: Vaccinia virus Copenhagen
[34] = source organism: Camelpox virus M-96
[35] = source organism: Pseudomonas aeruginosa UCBPP-PA14

WFREDRSPV gave a Kd (HLA-A*69:01 [1]; [31]) of no less than 20 µM, a Kd (HLA-B*15:09; [31]) of no less than 20 µM and a Kd (HLA-B*51:01) of no less than 20 µM. For the same sequence, the Kd (HLA-B*48:01; [32]) was no less than 20 µM, the Kd (HLA-A*02:01 [2]) was no less than 20 µM and the Kd (HLA-A*31:01 [3]; [32]) was no less than 20 µM. For the same sequence, the Kd (HLA-A*11:01 [4]; [32]) was no less than 20 µM, the Kd (HLA-B*07:02 [5]; [32]) was no less than 20 µM and the Kd (HLA-B*58:01 [6]; [32]) was no less than 20 µM. The Kd (HLA-B*27:05 [7]; [32]) was no less than 20 µM, the Kd (HLA-B*38:01) was no less than 20 µM and the Kd (HLA-A*01:01 [8]; [32]) was no less than 20 µM. It also gave a Kd (HLA-A*30:01 [9]) of no less than 20 µM, a Kd (HLA-A*03:01 [10]) of no less than 20 µM and a Kd (HLA-B*18:01 [11]; [32]) of 0.145 µM. For the same sequence, the Kd (HLA-B*40:01 [12]; [32]) was no less than 20 µM, the Kd (HLA-B*15:17 [13]) was no less than 20 µM and the Kd (HLA-B*46:01 [14]) was no less than 20 µM. The Kd (HLA-B*57:01; [32]) was no less than 20 µM and the Kd (HLA-B*15:01 [15]) was no less than 20 µM.
LEYGANYFL showed a Kd (HLA-A*68:02) of 2.26 µM, a Kd (HLA-B*39:01) of 3 µM and a Kd (HLA-A*30:01 [16]; [33]) of no less than 20 µM. It also gave a Kd (HLA-B*15:09; [33]) of no less than 20 µM, a Kd (HLA-B*15:17 [17]) of no less than 20 µM and a Kd (HLA-A*26:03) of no less than 20 µM. It also gave a Kd (HLA-B*48:01; [34]) of 4.39 µM, a Kd (HLA-A*69:01 [18]) of 1.6 µM and a Kd (HLA-A*31:01 [3]; [34]) of no less than 20 µM. For the same sequence, the Kd (HLA-A*11:01 [4]; [34]) was no less than 20 µM, the Kd (HLA-B*07:02 [5]; [34]) was no less than 20 µM and the Kd (HLA-B*58:01 [6]; [34]) was no less than 20 µM. For the same sequence, the Kd (HLA-B*27:05 [7]; [34]) was no less than 20 µM, the Kd (HLA-A*01:01 [8]; [34]) was no less than 20 µM and the Kd (HLA-B*18:01 [11]; [34]) was 0.0117 µM. The Kd (HLA-B*44:02) was no less than 20 µM, the Kd (HLA-B*40:01 [12]; [34]) was 0.0033 µM and the Kd (HLA-B*57:01; [34]) was no less than 20 µM.
In the case of FLDDASNSA, the Kd (HLA-A*02:19) is reported as 0.1 µM, the Kd (HLA-A*02:01 [19]) is reported as 0.0414 µM and the Kd (HLA-A*02:12) is reported as 0.0022 µM. The Kd (HLA-A*26:01) was no less than 20 µM, the Kd (HLA-A*69:01 [1]; [35]) was 1.01 µM and the Kd (HLA-A*31:01 [20]) was no less than 20 µM. The Kd (HLA-A*11:01 [21]) was no less than 20 µM, the Kd (HLA-A*02:11) was 0.0005 µM and the Kd (HLA-B*07:02 [22]) was no less than 20 µM. It also gave a Kd (HLA-B*58:01 [23]) of no less than 20 µM, a Kd (HLA-B*27:05 [24]) of no less than 20 µM and a Kd (HLA-A*01:01 [25]) of no less than 20 µM. The Kd (HLA-A*30:01 [16]; [35]) was no less than 20 µM, the Kd (HLA-A*02:06) was 0.0067 µM and the Kd (HLA-A*24:02) was no less than 20 µM. It also gave a Kd (HLA-A*03:01 [26]) of no less than 20 µM, a Kd (HLA-B*18:01 [27]) of no less than 20 µM and a Kd (HLA-B*40:01 [28]) of no less than 20 µM. For the same sequence, the Kd (HLA-A*02:50) was 0.0053 µM, the Kd (HLA-B*35:01) was no less than 20 µM and the Kd (HLA-B*46:01 [29]) was no less than 20 µM. The Kd (HLA-A*02:16) was 0.0016 µM and the Kd (HLA-B*15:01 [30]) was no less than 20 µM.
